Laboratory results reported in PMC11079029, “Intramolecular autoinhibition regulates the selectivity of PRPF40A tandem WW domains for proline-rich motifs” (Nature Communications, 2024).

B1: SF3B1 (protein, UniProt O75533 1-1304, looked up)
Splicing factor 3B subunit 1: MAKIAKTHEDIEAQIREIQGKKAALDEAQGVGLDSTGYYDQEIYGGSDSRFAGYVTSIAATELEDDDDDYSSSTSLLGQKKPGYHAPVALLNDIPQSTEQYDPFAEHRPPKIADREDEYKKHRRTMIISPERLDPFADGGKTPDPKMNARTYMDVMREQHLTKEEREIRQQLAEKAKAGELKVVNGAAASQPPSKRKRRWDQTADQTPGATPKKLSSWDQAETPGHTPSLRWDETPGRAKGSETPGATPGSKIWDPTPSHTPAGAATPGRGDTPGHATPGHGGATSSARKNRWDETPKTERDTPGHGSGWAETPRTDRGGDSIGETPTPGASKRKSRWDETPASQMGGSTPVLTPGKTPIGTPAMNMATPTPGHIMSMTPEQLQAWRWEREIDERNRPLSDEELDAMFPEGYKVLPPPAGYVPIRTPARKLTATPTPLGGMTGFHMQTEDRTMKSVNDQPSGNLPFLKPDDIQYFDKLLVDVDESTLSPEEQKERKIMKLLLKIKNGTPPMRKAALRQITDKAREFGAGPLFNQILPLLMSPTLEDQERHLLVKVIDRILYKLDDLVRPYVHKILVVIEPLLIDEDYYARVEGREIISNLAKAAGLATMISTMRPDIDNMDEYVRNTTARAFAVVASALGIPSLLPFLKAVCKSKKSWQARHTGIKIVQQIAILMGCAILPHLRSLVEIIEHGLVDEQQKVRTISALAIAALAEAATPYGIESFDSVLKPLWKGIRQHRGKGLAAFLKAIGYLIPLMDAEYANYYTREVMLILIREFQSPDEEMKKIVLKVVKQCCGTDGVEANYIKTEILPPFFKHFWQHRMALDRRNYRQLVDTTVELANKVGAAEIISRIVDDLKDEAEQYRKMVMETIEKIMGNLGAADIDHKLEEQLIDGILYAFQEQTTEDSVMLNGFGTVVNALGKRVKPYLPQICGTVLWRLNNKSAKVRQQAADLISRTAVVMKTCQEEKLMGHLGVVLYEYLGEEYPEVLGSILGALKAIVNVIGMHKMTPPIKDLLPRLTPILKNRHEKVQENCIDLVGRIADRGAEYVSAREWMRICFELLELLKAHKKAIRRATVNTFGYIAKAIGPHDVLATLLNNLKVQERQNRVCTTVAIAIVAETCSPFTVLPALMNEYRVPELNVQNGVLKSLSFLFEYIGEMGKDYIYAVTPLLEDALMDRDLVHRQTASAVVQHMSLGVYGFGCEDSLNHLLNYVWPNVFETSPHVIQAVMGALEGLRVAIGPCRMLQYCLQGLFHPARKVRDVYWKIYNSIYIGSQDALIAHYPRIYNDDKNTYIRYELDYIL
B2: MEPCE (protein, UniProt Q7L2J0 1-689, looked up)
7SK snRNA methylphosphate …: MIEMAAEKEPFLVPAPPPPLKDESGGGGGPTVPPHQEAASGELRGGTERGPGRCAPSAGSPAAAVGRESPGAAATSSSGPQAQQHRGGGPQAQSHGEARLSDPPGRAAPPDVGEERRGGGGTELGPPAPPRPRNGYQPHRPPGGGGGKRRNSCNVGGGGGGFKHPAFKRRRRVNSDCDSVLPSNFLLGGNIFDPLNLNSLLDEEVSRTLNAETPKSSPLPAKGRDPVEILIPKDITDPLSLNTCTDEGHVVLASPLKTGRKRHRHRGQHHQQQQAAGGSESHPVPPTAPLTPLLHGEGASQQPRHRGQNRDAPQPYELNTAINCRDEVVSPLPSALQGPSGSLSAPPAASVISAPPSSSSRHRKRRRTSSKSEAGARGGGQGSKEKGRGSWGGRHHHHHPLPAAGFKKQQRKFQYGNYCKYYGYRNPSCEDGRLRVLKPEWFRGRDVLDLGCNVGHLTLSIACKWGPSRMVGLDIDSRLIHSARQNIRHYLSEELRLPPQTLEGDPGAEGEEGTTTVRKRSCFPASLTASRGPIAAPQVPLDGADTSVFPNNVVFVTGNYVLDRDDLVEAQTPEYDVVLCLSLTKWVHLNWGDEGLKRMFRRIYRHLRPGGILVLEPQPWSSYGKRKTLTETIYKNYYRIQLKPEQFSSYLTSPDVGFSSYELVATPHNTSKGFQRPVYLFHKARSPSH
B3: HNRNPUL1 (protein, UniProt Q9BUJ2 1-856, looked up)
Heterogeneous nuclear …: MDVRRLKVNELREELQRRGLDTRGLKAELAERLQAALEAEEPDDERELDADDEPGRPGHINEEVETEGGSELEGTAQPPPPGLQPHAEPGGYSGPDGHYAMDNITRQNQFYDTQVIKQENESGYERRPLEMEQQQAYRPEMKTEMKQGAPTSFLPPEASQLKPDRQQFQSRKRPYEENRGRGYFEHREDRRGRSPQPPAEEDEDDFDDTLVAIDTYNCDLHFKVARDRSSGYPLTIEGFAYLWSGARASYGVRRGRVCFEMKINEEISVKHLPSTEPDPHVVRIGWSLDSCSTQLGEEPFSYGYGGTGKKSTNSRFENYGDKFAENDVIGCFADFECGNDVELSFTKNGKWMGIAFRIQKEALGGQALYPHVLVKNCAVEFNFGQRAEPYCSVLPGFTFIQHLPLSERIRGTVGPKSKAECEILMMVGLPAAGKTTWAIKHAASNPSKKYNILGTNAIMDKMRVMGLRRQRNYAGRWDVLIQQATQCLNRLIQIAARKKRNYILDQTNVYGSAQRRKMRPFEGFQRKAIVICPTDEDLKDRTIKRTDEEGKDVPDHAVLEMKANFTLPDVGDFLDEVLFIELQREEADKLVRQYNEEGRKAGPPPEKRFDNRGGGGFRGRGGGGGFQRYENRGPPGGNRGGFQNRGGGSGGGGNYRGGFNRSGGGGYSQNRWGNNNRDNNNSNNRGSYNRAPQQQPPPQQPPPPQPPPQQPPPPPSYSPARNPPGASTYNKNSNIPGSSANTSTPTVSSYSPPQPSYSQPPYNQGGYSQGYTAPPPPPPPPPAYNYGSYGGYNPAPYTPPPPPTAQTYPQPSYNQYQQYAQQWNQYYQNQGQWPPYYGNYDYGSYSGNTQGGTSTQ
B4: DDX20 (protein, UniProt Q9UHI6 1-824, looked up)
Probable ATP-dependent RNA …: MAAAFEASGALAAVATAMPAEHVAVQVPAPEPTPGPVRILRTAQDLSSPRTRTGDVLLAEPADFESLLLSRPVLEGLRAAGFERPSPVQLKAIPLGRCGLDLIVQAKSGTGKTCVFSTIALDSLVLENLSTQILILAPTREIAVQIHSVITAIGIKMEGLECHVFIGGTPLSQDKTRLKKCHIAVGSPGRIKQLIELDYLNPGSIRLFILDEADKLLEEGSFQEQINWIYSSLPASKQMLAVSATYPEFLANALTKYMRDPTFVRLNSSDPSLIGLKQYYKVVNSYPLAHKVFEEKTQHLQELFSRIPFNQALVFSNLHSRAQHLADILSSKGFPAECISGNMNQNQRLDAMAKLKHFHCRVLISTDLTSRGIDAEKVNLVVNLDVPLDWETYMHRIGRAGRFGTLGLTVTYCCRGEEENMMMRIAQKCNINLLPLPDPIPSGLMEECVDWDVEVKAAVHTYGIASVPNQPLKKQIQKIERTLQIQKAHGDHMASSRNNSVSGLSVKSKNNTKQKLPVKSHSECGIIEKATSPKELGCDRQSEEQMKNSVQTPVENSTNSQHQVKEALPVSLPQIPCLSSFKIHQPYTLTFAELVEDYEHYIKEGLEKPVEIIRHYTGPGDQTVNPQNGFVRNKVIEQRVPVLASSSQSGDSESDSDSYSSRTSSQSKGNKSYLEGSSDNQLKDSESTPVDDRISLEQPPNGSDTPNPEKYQESPGIQMKTRLKEGASQRAKQSRRNLPRRSSFRLQTEAQEDDWYDCHREIRLSFSDTYQDYEEYWRAYYRAWQEYYAAASHSYYWNAQRHPSWMAAYHMNTIYLQEMMHSNQ
B5: ATXN10 (protein, UniProt Q9UBB4 1-475, looked up)
Ataxin-10: MAAPRPPPARLSGVMVPAPIQDLEALRALTALFKEQRNRETAPRTIFQRVLDILKKSSHAVELACRDPSQVENLASSLQLITECFRCLRNACIECSVNQNSIRNLDTIGVAVDLILLFRELRVEQESLLTAFRCGLQFLGNIASRNEDSQSIVWVHAFPELFLSCLNHPDKKIVAYSSMILFTSLNHERMKELEENLNIAIDVIDAYQKHPESEWPFLIITDLFLKSPELVQAMFPKLNNQERVTLLDLMIAKITSDEPLTKDDIPVFLRHAELIASTFVDQCKTVLKLASEEPPDDEEALATIRLLDVLCEMTVNTELLGYLQVFPGLLERVIDLLRVIHVAGKETTNIFSNCGCVRAEGDISNVANGFKSHLIRLIGNLCYKNKDNQDKVNELDGIPLILDNCNISDSNPFLTQWVIYAIRNLTEDNSQNQDLIAKMEEQGLADASLLKKVGFEVEKKGEKLILKSTRDTPKP

Test system: GFP-tagged PRPF40A-Nter-MUT
Assay: SILAC GFP-immunoprecipitation with quantitative mass spectrometry, mutant construct
Format: binding, human (Hela cells)
Conditions: quantitative MS, Hela cells, protein by gene name
Method: The PRPF40A N-terminal region (isoform 2, residues 1-221) was PCR-amplified from RPE1 cDNA (ATCC, Cat# CRL-4000) cDNA. The sequence was amplified in two fragments and both fragments were combined by overhang. All PCRs were carried out using Q5 Polymerase (NEB) according to manufacturer’s protocol. The resulting PRPF40A N-terminal region was cloned into a GFP-expressing pcDNA5 vector (see pcDNA5 GFP vector in ref. [28]) using Q5 Site-Directed Mutagenesis Kit (NEB). Nter-MUT, containing the PPVP/PALPP motifs changed to AAAA/AAAAA, was obtained by mutating the N-ter-WW12-containing plasmid with Q5 site-directed mutagenesis. Plasmids were transformed into DH5alpha chemically competent cells. After culturing, DNA isolation was performed with either ZymoPURE Plasmid Miniprep Kit (Zymo Research) or QIAGEN Plasmid Plus Midi Kit (Qiagen). The sequence was confirmed by Sanger Sequencing (GATC Eurofins). All used oligonucleotides are shown in Supplementary Table 6.
Hela cells (ATCC, Cat# CCL-2, RRID:CVCL_0030) were cultured in DMEM SILAC medium (Thermo Fisher) supplemented with 10% filtered FBS (Sigma-Aldrich) and 1% penicillin-streptomycin (Thermo-Fisher). The SILAC medium contains either light (Arg0, Lys0), medium (Arg6, Lys4) or heavy (Arg10, Lys8) isotopes (Cambridge Isotopes Laboratories). Hela cells were cultivated for 14 days in SILAC medium to assure sufficient isotope incorporation. For transfection, 7 × 10^6 Hela cells were seeded in a 15 cm culture dish in 20 ml of respective SILAC medium and grown for 24 h. The cells were then transfected with 20 µg of plasmids expressing either GFP (Control), GFP-tagged N-ext-WW12 or GFP-tagged-N-ext-WW12-MUT utilizing 64 µl FuGENE (Promega) (ratio 1:3.2), according to manufacturer’s protocol.
24 h post-transfection, cells were washed twice in ice-cold PBS and harvested in 1 ml mRIPA buffer (50 mM Tris, 150 mM NaCl, 1 mM EDTA, 1% NP-40, 0.1% Na-deoxycholate), supplemented with 2 µl Turbo-DNase (Thermo Fisher) and 3 µl protease-inhibitor cocktail cOmplete (Sigma-Aldrich). Cell lysates were cleared by centrifugation at 16,000 × g, 4 °C, 15 min and concentration was measured using Pierce BCA Protein Assay kit (Thermo Scientific). The expressed constructs were pulled down by incubating 2.5 mg of lysate with 20 μl GFP-nanobody agarose beads (ChromoTek, GTA-20) for 1 h at 4 °C under constant agitation. Subsequently, beads were washed three times with mRIPA buffer without supplements, then eluted in 1X NuPAGE LDS sample buffer (Thermo Scientific). To detach the proteins from the beads, the eluate was heated to 70 °C for 10 min To evaluate the success of the immunoprecipitation, input (1%) and IP samples were analyzed on a NuPAGE 4–12% Bis-Tris-Acrylamide gel (Thermo Fisher) using NuPAGE MOPS SDS running buffer (Thermo Fisher). Proteins were stained using Sypro Ruby protein gel stain (Thermo Fisher) according to manufacturer’s protocol.
The eluted proteins of three SILAC states (light, medium, heavy) were combined. The proteins were then reduced in DTT, alkylated in iodoacetamide, and purified using the SP3 paramagnetic bead approach. This was followed by overnight enzymatic digestion using trypsin (1 µg per sample) in 50 mM ammonium bicarbonate at 37 °C. The peptide solution was then purified by solid phase extraction in C18 StageTips[99].
Peptides were separated by online reverse phase liquid chromatography using the EASY-nLC 1000 system (Thermo Scientific) in a 30-cm analytical column (inner diameter: 75 μm; heated at 50 °C) packed in-house with ReproSil-Pur 120 C18-AQ 1.9-μm beads (Dr. Maisch GmbH). The gradient separation was performed through a 105-min non-linear gradient of 1.6–32% acetonitrile with 0.1% formic acid at a nanoflow rate of 225 nl/min. The eluted peptides were sprayed directly by electrospray ionization into a Q Exactive Plus Orbitrap mass spectrometer (Thermo Scientific). […]

Molecule | Immunoprecipitation enrichment MUT vs WT, log2 FC
B1 | 0.9931
B2 | 1.321
B3 | 1.072
B4 | 1.113
B5 | 1.57
